This note sets out measurements from the RNAGym collection of RNA variant scans (doi:10.1073/pnas.2313332121).

B1: TPR t1 (parent)
chain: GACCAAUCUGCCCUCAGAGCUCGAGAACAUCUUCGGAUGCAGAGGAGGCAGGCUUCGGUGGCGCGAUAGCGCCAACGUCCUCAACCUCCAAUGCAUCCCACCACAUGAUGAUGCCUGAAGAGCCUUGGUUUUUUG

In this data set the parent is B1. Nature of the data set: polymerase ribozyme fitness, log enrichment relative to wild type (log ratio); higher = more active; in vitro selection for triplet polymerase activity. Summed up: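 PCR was used to build mutant libraries for each subunit of a heterodimeric triplet polymerase ribozyme, which were then transcribed. A single in vitro selection round, in triplicate, used a frozen incubation at −7 °C and recovered extended constructs by gel excision, streptavidin beads and RT-PCR. Fitness is the logarithm of genotype enrichment relative to wild-type enrichment, averaged over replicates with inverse-variance weights. The logarithm is base 2, and after Illumina sequencing only genotypes with ≥10 input reads and ≥1 read per output were kept.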
As to G36U G71A G120C C123G, the “polymerase ribozyme fitness (log ratio)” value was -1.

On to G36A U81A U125A, for which the “polymerase ribozyme fitness (log ratio)” value is -2.6.

With A37U G61C, the “polymerase ribozyme fitness (log ratio)” value was -1.86. Regarding A37U G61U, the “polymerase ribozyme fitness (log ratio)” value was -0.28. Next, A37U C86U A105G A121C U132C: -1.31. For the variant A37C C56A U78C U130C, the “polymerase ribozyme fitness (log ratio)” value is -0.27. With G36A C49G G93A A95G, the “polymerase ribozyme fitness (log ratio)” value was -3.09. Consider A37U G93U, for which the “polymerase ribozyme fitness (log ratio)” value is -1.86.

G35A A41C U54C C64A A84G C101U C123U: the “polymerase ribozyme fitness (log ratio)” value was -7.59. In the case of G35U G39A, the “polymerase ribozyme fitness (log ratio)” value was -5.13.

Turning to G36C G60A, the “polymerase ribozyme fitness (log ratio)” value is -0.627.

As to G36U C72G C102U, the “polymerase ribozyme fitness (log ratio)” value was -3.82. For the variant C34U G39C A50G, the “polymerase ribozyme fitness (log ratio)” value was -5.57. Turning to A37G G42C, the “polymerase ribozyme fitness (log ratio)” value is -1.89. As to G36C C72G, the “polymerase ribozyme fitness (log ratio)” value is -2.37. Turning to A37G C64U C73G U109A, the “polymerase ribozyme fitness (log ratio)” value is -6.41. Consider A37U C53G U116A, for which the “polymerase ribozyme fitness (log ratio)” value is -3.56.

Take A37C G48U A108U G120C: the “polymerase ribozyme fitness (log ratio)” value was -5.53.

For the variant G36C C40A, the “polymerase ribozyme fitness (log ratio)” value is -1.42. In the case of G36U C56U C104A, the “polymerase ribozyme fitness (log ratio)” value is -2.85. Consider G36A G71U U106A, for which the “polymerase ribozyme fitness (log ratio)” value was -1.11.

In the case of A37U G51C C88A, the “polymerase ribozyme fitness (log ratio)” value was -5.1.

G35A G60C: the “polymerase ribozyme fitness (log ratio)” value was -5.49.

On to G35A C99G U133G, for which the “polymerase ribozyme fitness (log ratio)” value was -5.8.

For the variant A37C A68G, the “polymerase ribozyme fitness (log ratio)” value was -2.51.

For G36U G61A G117U, the “polymerase ribozyme fitness (log ratio)” value was -5.19. For the variant G36A C94A, the “polymerase ribozyme fitness (log ratio)” value was -2.77. For G36A U106A G117A, the “polymerase ribozyme fitness (log ratio)” value was -1.88.

For G35C C53G C56U U130A, the “polymerase ribozyme fitness (log ratio)” value was -6.86. Consider G36U G42U, for which the “polymerase ribozyme fitness (log ratio)” value was -3.46. Take G35A G42C C73U A84U C123U: the “polymerase ribozyme fitness (log ratio)” value is -6.85. For the variant A37U G69C, the “polymerase ribozyme fitness (log ratio)” value was -1.75. Regarding G35A C70U, the “polymerase ribozyme fitness (log ratio)” value is -2.72.

On to C34U U59A, for which the “polymerase ribozyme fitness (log ratio)” value is -5.75. Consider G35A C72G, for which the “polymerase ribozyme fitness (log ratio)” value was -2.69. Consider G35A C72U, for which the “polymerase ribozyme fitness (log ratio)” value was -4.58. In the case of G36U G71C, the “polymerase ribozyme fitness (log ratio)” value is -1.92. Turning to A37G C40U, the “polymerase ribozyme fitness (log ratio)” value is -1.48. In the case of A37C C56G, the “polymerase ribozyme fitness (log ratio)” value was -1. As to G36U A103G, the “polymerase ribozyme fitness (log ratio)” value is -4.73.

For the variant A37C G61A C73U, the “polymerase ribozyme fitness (log ratio)” value is -0.816.

For A37U G44A G52U C79A G113U G120U, the “polymerase ribozyme fitness (log ratio)” value is -5.01.

For the variant G35A U87A, the “polymerase ribozyme fitness (log ratio)” value was -3.5. The same measure for G35A C88U C102A: -5.27; for A37U G48U U55A: -1.56. For G36C C114A G120A, the “polymerase ribozyme fitness (log ratio)” value was -2.49. As for A37G G60U U112C C123G, the “polymerase ribozyme fitness (log ratio)” value was -0.195. Take G36A C62U C72U: the “polymerase ribozyme fitness (log ratio)” value is -0.886. Next, G36C C40G C72U C73A: -5.31. Turning to A37G G39C, the “polymerase ribozyme fitness (log ratio)” value is -2.69. As for G35A G45C G71C G77C C104U C114G, the “polymerase ribozyme fitness (log ratio)” value was -5.08. As for G35C U87A, the “polymerase ribozyme fitness (log ratio)” value is -5.04. The same measure for A37U G69C C89U: -2.29.

For the variant A37C G61U U109A, the “polymerase ribozyme fitness (log ratio)” value was -5.9. For C34U A41G C53U G69U, the “polymerase ribozyme fitness (log ratio)” value was -2.44.

As to C34U C53U G61U G120A U132A, the “polymerase ribozyme fitness (log ratio)” value is -3.26. For the variant G36A C72A C97U, the “polymerase ribozyme fitness (log ratio)” value was determined as 0.549. Take A37U C86A: the “polymerase ribozyme fitness (log ratio)” value was -0.797. For G36U C49U C64U G113A C115U G128U, the “polymerase ribozyme fitness (log ratio)” value was -6.05. Take G35U C73U U112C: the “polymerase ribozyme fitness (log ratio)” value was -2.9.

As for A37U C56G U87G, the “polymerase ribozyme fitness (log ratio)” value was -1.26.

Take G36U C40A U81A G120C G122A: the “polymerase ribozyme fitness (log ratio)” value was -4.24.

Regarding G36A G44U C72A C88A U106G G113C, the “polymerase ribozyme fitness (log ratio)” value was -5.9. As for G36U C104U, the “polymerase ribozyme fitness (log ratio)” value is -1.41. Consider G36U U132A, for which the “polymerase ribozyme fitness (log ratio)” value was -0.893.

As to G36U G44A C72A C94G C123G, the “polymerase ribozyme fitness (log ratio)” value was -4.22. As for C34U G45C G69U C115G, the “polymerase ribozyme fitness (log ratio)” value is -3.26. For the variant G36A A66U C88A C104G G113A C123G C124A, the “polymerase ribozyme fitness (log ratio)” value is -5.59. The same measure for A37C C49A G69U G77C C85A: -3.32; for G35U C115A G120C: -5.77. Consider C34U C88G, for which the “polymerase ribozyme fitness (log ratio)” value was -3.99. For G35U G58A C115U, the “polymerase ribozyme fitness (log ratio)” value was -7.02. The same measure for A37G C76G C80G: -6.38; for C34G G36U C72U U96C G127C U130G: -6.19.

On to G35A G69C, for which the “polymerase ribozyme fitness (log ratio)” value was -4.88. Turning to C34G G63U C72U G110U, the “polymerase ribozyme fitness (log ratio)” value is -8.01. In the case of G36U A90G C97G U106C, the “polymerase ribozyme fitness (log ratio)” value is -1.51. A37C C49A A66C C104U U125G: the “polymerase ribozyme fitness (log ratio)” value is -1.63.

Consider A37C G44A A50U G120U, for which the “polymerase ribozyme fitness (log ratio)” value was -3.3. For A37U G63C A95C, the “polymerase ribozyme fitness (log ratio)” value was -1.93. Take G35A G58C: the “polymerase ribozyme fitness (log ratio)” value was -3.4. On to A37U A43G G60A, for which the “polymerase ribozyme fitness (log ratio)” value is -2.78.

Consider A37C A118U, for which the “polymerase ribozyme fitness (log ratio)” value was 0.469.
